# Results published in patent US20220089722A1 (NANTONG YICHEN BIOPHARMA, published 2022).
# B1: IgFD-28(anti-CD3/EGFR) (bispecific antibody, human IgG1, kappa)
# chain 1: EVQLVESGGGLVQPGGSLRLSCAASGFTFNTYAMNWVRQAPGKGLEWVARIRSKYNNYATYYADSVKDRFTISRDDSKNTLYLQMNSLRAEDTAVYYCVRHGNFGNSYVSWFAYWGQGTLVTVSSASTKGPSVFPLAPSSKSTSGGTAALGCLVKDYFPEPVTVSWNSGALTSGVHTFPAVLQSSGLYSLSSVVTVPSSSLGTQTYICNVNHKPSNTKVDKKVEPKSCDKTHTCPPCPAPPVAGPSVFLFPPKPKDTLMISRTPEVTCVVVDVSHEDPEVKFNWYVDGVEVHNAKTKPREEQYNSTYRVVSVLTVLHQDWLNGKEYKCKVSNKGLPSSIEKTISKAKGQPREPQVYTLPPCRDELTKNQVSLWCLVKGFYPSDIAVEWESNGQPENNYKTTPPVLDSDGSFFLYSKLTVDKSRWQQGNVFSCSVMHEALHNHYTQKSLSLSPGK
# chain 2: QAVVTQEPSLTVSPGGTVTLTCRSSTGAVTTSNYANWVQQKPDHLFRGLIGGTNKRAPGTPARFSGSLLGDKAALTISGAQPEDEAEYYCALWYSNLWVFGGGTKLEIKRTVAAPSVFIFPPSDEQLKSGTASVVCLLNNFYPREAKVQWKVDNALQSGNSQESVTEQDSKDSTYSLSSTLTLSKADYEKHKVYACEVTHQGLSSPVTKSFNRGECDKTHTCPPCPAPPVAGPSVFLFPPKPKDTLMISRTPEVTCVVVDVSHEDPEVKFNWYVDGVEVHNAKTKPREEQYNSTYRVVSVLTVLHQDWLNGKEYKCKVSNKGLPSSIEKTISKAKGQPREPQVCTLPPSRDELTKNQVSLSCAVKGFYPSDIAVEWESNGQPENNYKTTPPVLDSDGSFFLVSKLTVDKSRWQQGNVFSCSVMHEALHNHYTQKSLSLSPGKGGSGGSGGGGSGGGGSDIQMTQSPSSLSASVGDRVTITCQASQDISNYLNWYQQKPGKAPKLLIYDASNLETGVPSRFSGSGSGTDFTFTISSLQPEDIATYFCQHFDHLPLAFGGGTKVEIKGGGGSGGGGSGGGGSQVQLQESGPGLVKPSETLSLTCTVSGGSVSSGDYYWTWIRQSPGKGLEWIGHIYYSGNTNYNPSLKSRLTISIDTSKTQFSLKLSSVTAADTAIYYCVRDRVTGAFDIWGQGTMVTVSS
# notes: also called IgFD-28(ProA); IgFD-28(CH1)
# B2: IgFD-29(anti-CD3/EGFR) (bispecific antibody, human IgG1, kappa)
# chain 1: EVQLVESGGGLVQPGGSLRLSCAASGFTFNTYAMNWVRQAPGKGLEWVARIRSKYNNYATYYADSVKDRFTISRDDSKNTLYLQMNSLRAEDTAVYYCVRHGNFGNSYVSWFAYWGQGTLVTVSSASTKGPSVFPLAPSSKSTSGGTAALGCLVKDYFPEPVTVSWNSGALTSGVHTFPAVLQSSGLYSLSSVVTVPSSSLGTQTYICNVNHKPSNTKVDKKVEPKSCDKTHTCPPCPAPPVAGPSVFLFPPKPKDTLMISRTPEVTCVVVDVSHEDPEVKFNWYVDGVEVHNAKTKPREEQYNSTYRVVSVLTVLHQDWLNGKEYKCKVSNKGLPSSIEKTISKAKGQPREPQVYTLPPCRDELTKNQVSLWCLVKGFYPSDIAVEWESNGQPENNYKTTPPVLDSDGSFFLYSKLTVDKSRWQQGNVFSCSVMHEALHNHYTQKSLSLSPGKGGSGGSGGGGSGGGGSQVQLQESGPGLVKPSETLSLTCTVSGGSVSSGDYYWTWIRQSPGKGLEWIGHIYYSGNTNYNPSLKSRLTISIDTSKTQFSLKLSSVTAADTAIYYCVRDRVTGAFDIWGQGTMVTVSS
# chain 2: QAVVTQEPSLTVSPGGTVTLTCRSSTGAVTTSNYANWVQQKPDHLFRGLIGGTNKRAPGTPARFSGSLLGDKAALTISGAQPEDEAEYYCALWYSNLWVFGGGTKLTVLKRTVAAPSVFIFPPSDEQLKSGTASVVCLLNNFYPREAKVQWKVDNALQSGNSQESVTEQDSKDSTYSLSSTLTLSKADYEKHKVYACEVTHQGLSSPVTKSFNRGECDKTHTCPPCPAPPVAGPSVFLFPPKPKDTLMISRTPEVTCVVVDVSHEDPEVKFNWYVDGVEVHNAKTKPREEQYNSTYRVVSVLTVLHQDWLNGKEYKCKVSNKGLPSSIEKTISKAKGQPREPQVCTLPPSRDELTKNQVSLSCAVKGFYPSDIAVEWESNGQPENNYKTTPPVLDSDGSFFLVSKLTVDKSRWQQGNVFSCSVMHEALHNHYTQKSLSLSPGKGGSGGSGGGGSGGGGSDIQMTQSPSSLSASVGDRVTITCQASQDISNYLNWYQQKPGKAPKLLIYDASNLETGVPSRFSGSGSGTDFTFTISSLQPEDIATYFCQHFDHLPLAFGGGTKVEIK
# notes: (ProA)/(CH1) = purification resin; also called IgFD-29(ProA); IgFD-29(CH1)
# B3: IgFD-32(anti-CD3/EGFR) (bispecific antibody, human IgG1, kappa, lambda)
# chain 1: EVQLVESGGGLVQPGGSLRLSCAASGFTFNTYAMNWVRQAPGKGLEWVARIRSKYNNYATYYADSVKDRFTISRDDSKNTLYLQMNSLRAEDTAVYYCVRHGNFGNSYVSWFAYWGQGTLVTVSSASTKGPQVQLQESGPGLVKPSETLSLTCTVSGGSVSSGDYYWTWIRQSPGKGLEWIGHIYYSGNTNYNPSLKSRLTISIDTSKTQFSLKLSSVTAADTAIYYCVRDRVTGAFDIWGQGTMVTVSSASTKGPSVFPLAPSSKSTSGGTAALGCLVKDYFPEPVTVSWNSGALTSGVHTFPAVLQSSGLYSLSSVVTVPSSSLGTQTYICNVNHKPSNTKVDKKVEPKSCDKTHTCPPCPAPPVAGPSVFLFPPKPKDTLMISRTPEVTCVVVDVSHEDPEVKFNWYVDGVEVHNAKTKPREEQYNSTYRVVSVLTVLHQDWLNGKEYKCKVSNKGLPSSIEKTISKAKGQPREPQVYTLPPCRDELTKNQVSLWCLVKGFYPSDIAVEWESNGQPENNYKTTPPVLDSDGSFFLYSKLTVDKSRWQQGNVFSCSVMHEALHNHYTQKSLSLSPGK
# chain 2: not shown
# notes: (ProA)/(CH1) = purification resin; also called IgFD-32(ProA); IgFD-32(CH1)
# B4: IgFD-33(anti-CD3/EGFR) (bispecific antibody, human IgG1, kappa)
# chain 1: QVQLQESGPGLVKPSETLSLTCTVSGGSVSSGDYYWTWIRQSPGKGLEWIGHIYYSGNTNYNPSLKSRLTISIDTSKTQFSLKLSSVTAADTAIYYCVRDRVTGAFDIWGQGTMVTVSSASTKGPEVQLVESGGGLVQPGGSLRLSCAASGFTFNTYAMNWVRQAPGKGLEWVARIRSKYNNYATYYADSVKDRFTISRDDSKNTLYLQMNSLRAEDTAVYYCVRHGNFGNSYVSWFAYWGQGTLVTVSSASTKGPSVFPLAPSSKSTSGGTAALGCLVKDYFPEPVTVSWNSGALTSGVHTFPAVLQSSGLYSLSSVVTVPSSSLGTQTYICNVNHKPSNTKVDKKVEPKSCDKTHTCPPCPAPPVAGPSVFLFPPKPKDTLMISRTPEVTCVVVDVSHEDPEVKFNWYVDGVEVHNAKTKPREEQYNSTYRVVSVLTVLHQDWLNGKEYKCKVSNKGLPSSIEKTISKAKGQPREPQVYTLPPCRDELTKNQVSLWCLVKGFYPSDIAVEWESNGQPENNYKTTPPVLDSDGSFFLYSKLTVDKSRWQQGNVFSCSVMHEALHNHYTQKSLSLSPGK
# chain 2: DIQMTQSPSSLSASVGDRVTITCQASQDISNYLNWYQQKPGKAPKLLIYDASNLETGVPSRFSGSGSGTDFTFTISSLQPEDIATYFCQHFDHLPLAFGGGTKVEIKTVAAPSVFIFPPQAVVTQEPSLTVSPGGTVTLTCRSSTGAVTTSNYANWVQQKPDHLFRGLIGGTNKRAPGTPARFSGSLLGDKAALTISGAQPEDEAEYYCALWYSNLWVFGGGTKLTVLKRTVAAPSVFIFPPSDEQLKSGTASVVCLLNNFYPREAKVQWKVDNALQSGNSQESVTEQDSKDSTYSLSSTLTLSKADYEKHKVYACEVTHQGLSSPVTKSFNRGECDKTHTCPPCPAPPVAGPSVFLFPPKPKDTLMISRTPEVTCVVVDVSHEDPEVKFNWYVDGVEVHNAKTKPREEQYNSTYRVVSVLTVLHQDWLNGKEYKCKVSNKGLPSSIEKTISKAKGQPREPQVCTLPPSRDELTKNQVSLSCAVKGFYPSDIAVEWESNGQPENNYKTTPPVLDSDGSFFLVSKLTVDKSRWQQGNVFSCSVMHEALHNHYTQKSLSLSPGK
# notes: also called IgFD-33 (ProA)
# Experiments:
# [1] = molecular target: T1, CD3 on T cells (Jurkat T cells; PBMC-T cells); assay: flow cytometry on Jurkat T cells; protein purified on CH1 resin
# T1 construct: whole, on cells; the target is inferred from the anti-CD3 arm of the constructs
# T1 sequence (P07766 23-207): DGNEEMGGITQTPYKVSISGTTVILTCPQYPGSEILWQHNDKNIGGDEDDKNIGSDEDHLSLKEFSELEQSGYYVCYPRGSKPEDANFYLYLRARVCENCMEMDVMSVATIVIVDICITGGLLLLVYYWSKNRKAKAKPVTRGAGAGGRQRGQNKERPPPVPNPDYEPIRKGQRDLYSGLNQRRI
# [2] = molecular target: T2, EGFR on F98-EGFR cells (UniProt P00533 25-1210, limits assumed); assay: flow cytometry on F98-EGFR cells; protein purified on CH1 resin
# T2 construct: whole, on cells
# [3] = molecular target: T2, EGFR on F98-EGFR cells; assay: flow cytometry on F98-EGFR cells; protein purified on Protein A resin
# [4] = molecular target: T1, CD3 on T cells (Jurkat T cells; PBMC-T …); assay: flow cytometry on Jurkat T cells; protein purified on Protein A resin
# [5] = molecular target: T2, EGFR on F98-EGFR cells; assay: cell-based or functional assay
# [6] = molecular target: T2, EGFR on F98-EGFR cells; assay: flow cytometry on F98-EGFR cells
# Method: F98-EGFR cells (a DMEM containing 10% FBS, 200 μg/ml G418) were cultured. 2×10⁵ cells were washed by precooled PBS for 3 times, and blocked by 2% FBS (soluble to PBS). IgFD-8, IgFD-9, IgFD-10, IgFD-11, IgFD-18, IgFD-19, IgFD-25, IgFD-26 or IgFD-31 (aEGFR expressed in a laboratory as a control) was added and incubated for 2 h at 4° C. (cells were gently mixed during incubation), unbounded antibodies were washed by 2% FBS (soluble to PBS), and then the remaining cells were incubated by FITC anti-human IgGFc(KPL, Inc., MD) for 1 h at 4° C., and washed by 2% FBS (soluble to PBS) for flow cytometry analysis. As shown in FIG. 7 and Table 4, the anti-CD3/anti-EGFR heterodimers in different forms of fusion could bind to EGFR on F98-EGFR cells, and there was no significant difference in the binding capacity of different heterodimers to F98-EGFR.
Binder,Kd [1] [nM],Kd [2] [nM],Kd [3] [nM],Kd [4] [nM],"Promotion for the specific killing effect of PBMCs on target cells by heterodimers (EC50, pM); F98-EGFR cells, LDH assay; IgFD-28(CH1) [5] [pM]","Promotion for the specific killing effect of PBMCs on target cells by heterodimers (EC50, pM); F98-EGFR cells, LDH assay; IgFD-28(ProA) [5] [pM]","Promotion for the specific killing effect of PBMCs on target cells by heterodimers (EC50, pM); F98-EGFR cells, LDH assay; IgFD-29(CH1) [5] [pM]","Promotion for the specific killing effect of PBMCs on target cells by heterodimers (EC50, pM); F98-EGFR cells, LDH assay; IgFD-29(ProA) [5] [pM]",Kd [6] [nM]
B1,10.4,2.86,3.81,12.2,11.4,14.7,,,
B2,6.82,78,77.5,7.42,,,338,293,
B3,8.45,12.8,19.6,7.13,,,,,
B4,,,,50.7,,,,,2.42
